From patent US20160009768A1

Target: elongation factor-2 (EF-2) (rabbit) (UniProt P55823)
Test: cell-based or functional assay

Substance	inhibition of transcription/translation of T7-luc plasmid in IVTT [%]
DT382 (G53E): Null construct (from UniProt P00587 26-406) (enzyme)	20
wild type DT382 (from UniProt P00587 26-406) (enzyme)	90
